From publication PMC12435366, “Maleic anhydride derived diphosphines: adaptable chelators for receptor-targeted ^99mTc, ^64Cu and ^188Re radiotracers” (Chemical Science, 2025)

Test: in vivo
Set-up: species or system mice
Details: male, athymic nude (Crl:NU(NCr)-Foxn1nu), mouse, iv, total radioactivity
Method: The biodistribution of [^99mTcO2(DP^An-PSMAt)2]^+ and [^99mTcO2(DP^MEP-PSMAt)2]^+ was studied using SPECT/CT imaging and ex vivo biodistribution methods. In these studies, [^99mTcO2(DP^An-PSMAt)2]^+ and [^99mTcO2(DP^MEP-PSMAt)2]^+ were used directly from kit-based formulations, without further purification, mimicking procedures used in clinical radiopharmacies and nuclear medicine departments. Mice were injected with [^99mTcO2(DP^An-PSMAt)2]^+ or [^99mTcO2(DP^MEP-PSMAt)2]^+ (4–5 MBq), containing 3 μg (2.6 nmol) of DP^An-PSMAt or 3.5 μg (2.6 nmol) of (DP^MEP-PSMAt) via the tail-vein, and culled 2 h post-injection, followed by dissection, organ/tissue weighing and counting.
The biodistribution of [^99mTcO2(DP^An-PSMAt)2]^+ and [^99mTcO2(DP^MEP-PSMAt)2]^+ was further studied in (i) male SCID/Beige mice bearing DU145-PSMA+ prostate cancer xenografts (Fig. 8) and (ii) male nude mice bearing PSMA-expressing LNCaP prostate cancer xenografts (see SI). […]
4.10 In vivo imaging and biodistribution (DU145-PSMA+ and LNCaP)
Preparation of tumour-bearing mice: All animal experiments were ethically reviewed by an Animal Welfare & Ethical Review Board at either King’s College London or Bart’s Cancer Institute and carried out in accordance with the Animals (Scientific Procedures) Act 1986 UK Home Office regulations governing animal experimentation. Subcutaneous prostate cancer xenografts were produced in SCID/beige mice (male, 7–12 weeks old) by injecting 4 × 10^6 DU145-PSMA+ or DU145 cells suspended in PBS (100 μL) on the right shoulder. Imaging and biodistribution studies were performed once a tumour had reached 5–10 mm in diameter (3–4 weeks after injection). Subcutaneous LNCaP prostate cancer xenografts were produced in athymic nude (Crl:NU(NCr)-Foxn1nu) mice (male, 6–7 weeks old) by injecting 5 × 10^6 LNCaP cells suspended in PBS:matrigel (1:1, 200 μL) on the right flank.
Biodistribution studies using 99mTc radiotracers were performed once a tumour had reached 150– 300 mm3 in volume (2–7 weeks after injection).
SCID/beige mice bearing DU145-PSMA+ prostate cancer tumour xenografts
SPECT/CT scanning and biodistribution studies: The 99mTc radiotracers (3.9–4.5 MBq, 3 mice per group, containing DPAn-PSMAt = 3.0 µg or DPMEP-PSMAt = 3.5 µg) were administered via tail vein injection under isoflurane anaesthesia. […]
in helical scanning mode). At 2 h post-injection, the animals were euthanized by cervical dislocation, organs/tissues harvested and weighed, and radioactivity counted using a gamma […]
ii. […] After scanning, the organs/tissues were harvested, weighed and radioactivity counted […]
Urine was collected and directly analysed by reverse-phase radio-HPLC (method 2). Data were analysed in GraphPad Prism 9 (version 9.1.1) and expressed as mean ± standard deviation (SD). […]

SMILES	tissue uptake at 2 h (Kidney)	tissue uptake at 2 h (Liver)
COCCOc1ccc(P(/C(C(=O)O)=C(/C(=O)NCCOCCOCCOCCOCCC(=O)NCCCC[C@H](NC(=O)N[C@@H](CCC(=O)O)C(=O)O)C(=O)O)P(c2ccc(OCCOC)cc2)c2ccc(OCCOC)cc2)c2ccc(OCCOC)cc2)cc1 [[^99mTcO2(DP^MEP-PSMAt)2]^+, metal not drawn]	46.4 ± 23.2 %ID/g	7.38 ± 3.98 %ID/g
COc1ccc(P(/C(C(=O)O)=C(/C(=O)NCCOCCOCCOCCOCCC(=O)NCCCC[C@H](NC(=O)N[C@@H](CCC(=O)O)C(=O)O)C(=O)O)P(c2ccc(OC)cc2)c2ccc(OC)cc2)c2ccc(OC)cc2)cc1 [[^99mTcO2(DP^An-PSMAt)2]^+, metal not drawn]	87.6 ± 13.3 %ID/g	0.9 ± 0.15 %ID/g
